Experimental data published in publication PMC11096365, “Cryo-EM structures of the human Elongator complex at work” (Nature Communications, 2024).

Tests used:
H3 = test: MST; details: complex; chains chain;chain;chain
TK40 = test: MST; details: complex; chains chain;chain;chain
[1] = target: the molecule itself; test: cryo-EM structure; co-expressed, co-purified ELP123 (0.6 g/l) without or with tRNA (3.3 µM), acetyl-CoA/DCA/ECA (0.5 mM) and SAM (1 mM); 20 mM HEPES pH 7.5, 100 mM NaCl, 2 mM MgCl2, 2 mM DTT; single-particle analysis
[2] = target: T1, human ELP3 with C-terminal Twin-Strep-Tag (human, UniProt Q9H9T3 1-547); test: co-purification with SDS-PAGE; ELP1, ELP2 and ELP3-Twin-Strep co-expressed in insect cells; StrepTrap, heparin and Superose 6 columns; SDS-PAGE of the purified subcomplex; details: partners not purified
T1 construct: ELP3, human, codon-optimized open reading frame, UniProt Q9H9T3; with the tag 65 kDa as printed; Same material as the ELP3 chain of m4; carries an iron-sulfur cluster in all structures; also called ELP3 with Twin-Strep-Tag (TST); source: SuperSf9-3 insect cells, co-expressed with ELP1 and ELP2 (pBig1a), purified as ELP123 (StrepTrap, heparin, Superose 6); not shown: Twin-Strep-Tag, C-terminal, …
T1 sequence (looked up): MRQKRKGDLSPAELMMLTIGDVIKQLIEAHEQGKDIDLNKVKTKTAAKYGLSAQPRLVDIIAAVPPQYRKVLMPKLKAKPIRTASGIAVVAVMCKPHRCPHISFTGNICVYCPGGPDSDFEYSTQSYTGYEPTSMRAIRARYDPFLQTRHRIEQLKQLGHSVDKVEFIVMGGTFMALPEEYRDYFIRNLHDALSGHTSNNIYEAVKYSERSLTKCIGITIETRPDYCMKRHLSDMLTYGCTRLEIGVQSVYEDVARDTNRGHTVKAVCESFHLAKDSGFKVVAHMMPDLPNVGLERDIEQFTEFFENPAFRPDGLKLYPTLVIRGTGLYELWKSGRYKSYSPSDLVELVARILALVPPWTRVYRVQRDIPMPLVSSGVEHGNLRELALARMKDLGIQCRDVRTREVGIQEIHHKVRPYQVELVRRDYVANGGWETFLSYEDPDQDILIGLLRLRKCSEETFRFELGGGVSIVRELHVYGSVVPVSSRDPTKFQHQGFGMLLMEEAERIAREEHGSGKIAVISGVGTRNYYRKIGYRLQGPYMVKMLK

ELP1;ELP2;ELP3 wild type = ELP1;ELP2;ELP3 wild type (Homo sapiens;Homo sapiens;Homo sapiens, UniProt O95163;Q6IA86;Q9H9T3 1-1332;1-826;1-547, ||); test: MST; MST: 20 mM HEPES pH 7.5, 100 mM NaCl, 5 mM DTT, 0.05% Tween 20; incubated at 4 C 30 min, measured at 25 C; Cy5-tRNA 14 or 30 nM. Cryo-EM: 20 mM HEPES pH 7.5, 100 mM NaCl, 2 mM MgCl2, 2 mM DTT; details: protein: recombinant;recombinant;recombinant, tags: ;;C-terminal Twin-Strep-Tag, chain copies: 2;2;2, label: internal Cy5 (5% Cy5-CTP), tRNA fold

## human ELP123 subcomplex (ELP1, ELP2, ELP3), O95163 1-1332; Q6IA86 1-826; Q9H9T3 1-547
H3
  Kd: > 10000 nM
TK40
  Kd: > 10000 nM

B1: human ELP1 (natural protein, UniProt O95163 1-1332, looked up)
chain: MRNLKLFRTLEFRDIQGPGNPQCFSLRTEQGTVLIGSEHGLIEVDPVSREVKNEVSLVAEGFLPEDGSGRIVGVQDLLDQESVCVATASGDVILCSLSTQQLECVGSVASGISVMSWSPDQELVLLATGQQTLIMMTKDFEPILEQQIHQDDFGESKFITVGWGRKETQFHGSEGRQAAFQMQMHESALPWDDHRPQVTWRGDGQFFAVSVVCPETGARKVRVWNREFALQSTSEPVAGLGPALAWKPSGSLIASTQDKPNQQDIVFFEKNGLLHGHFTLPFLKDEVKVNDLLWNADSSVLAVWLEDLQREESSIPKTCVQLWTVGNYHWYLKQSLSFSTCGKSKIVSLMWDPVTPYRLHVLCQGWHYLAYDWHWTTDRSVGDNSSDLSNVAVIDGNRVLVTVFRQTVVPPPMCTYQLLFPHPVNQVTFLAHPQKSNDLAVLDASNQISVYKCGDCPSADPTVKLGAVGGSGFKVCLRTPHLEKRYKIQFENNEDQDVNPLKLGLLTWIEEDVFLAVSHSEFSPRSVIHHLTAASSEMDEEHGQLNVSSSAAVDGVIISLCCNSKTKSVVLQLADGQIFKYLWESPSLAIKPWKNSGGFPVRFPYPCTQTELAMIGEEECVLGLTDRCRFFINDIEVASNITSFAVYDEFLLLTTHSHTCQCFCLRDASFKTLQAGLSSNHVSHGEVLRKVERGSRIVTVVPQDTKLVLQMPRGNLEVVHHRALVLAQIRKWLDKLMFKEAFECMRKLRINLNLIYDHNPKVFLGNVETFIKQIDSVNHINLFFTELKEEDVTKTMYPAPVTSSVYLSRDPDGNKIDLVCDAMRAVMESINPHKYCLSILTSHVKKTTPELEIVLQKVHELQGNAPSDPDAVSAEEALKYLLHLVDVNELYDHSLGTYDFDLVLMVAEKSQKDPKEYLPFLNTLKKMETNYQRFTIDKYLKRYEKAIGHLSKCGPEYFPECLNLIKDKNLYNEALKLYSPSSQQYQDISIAYGEHLMQEHMYEPAGLMFARCGAHEKALSAFLTCGNWKQALCVAAQLNFTKDQLVGLGRTLAGKLVEQRKHIDAAMVLEECAQDYEEAVLLLLEGAAWEEALRLVYKYNRLDIIETNVKPSILEAQKNYMAFLDSQTATFSRHKKRLLVVRELKEQAQQAGLDDEVPHGQESDLFSETSSVVSGSEMSGKYSHSNSRISARSSKNRRKAERKKHSLKEGSPLEDLALLEALSEVVQNTENLKDEVYHILKVLFLFEFDEQGRELQKAFEDTLQLMERSLPEIWTLTYQQNSATPVLGPNSTANSIMASYQQQKTSVPVLDAELFIPPKINRRTQWKLSLLD
notes: ELP1, human, codon-optimized open reading frame, UniProt O95163; predicted MW printed as 148 kDa; Same material as the ELP1 chain of m4; The ORF was first cloned into pFastBac1 HT A; source: SuperSf9-3 insect cells, co-expressed with ELP2 and ELP3 (pBig1a), purified as ELP123 (StrepTrap, heparin, Superose 6)
[1]
  binding result: binds
[2]
  stoichiometry N: 1

B2: human ELP2 (natural protein, UniProt Q6IA86 1-826, looked up)
chain: MVAPVLETSHVFCCPNRVRGVLNWSSGPRGLLAFGTSCSVVLYDPLKRVVVTNLNGHTARVNCIQWICKQDGSPSTELVSGGSDNQVIHWEIEDNQLLKAVHLQGHEGPVYAVHAVYQRRTSDPALCTLIVSAAADSAVRLWSKKGPEVMCLQTLNFGNGFALALCLSFLPNTDVPILACGNDDCRIHIFAQQNDQFQKVLSLCGHEDWIRGVEWAAFGRDLFLASCSQDCLIRIWKLYIKSTSLETQDDDNIRLKENTFTIENESVKIAFAVTLETVLAGHENWVNAVHWQPVFYKDGVLQQPVRLLSASMDKTMILWAPDEESGVWLEQVRVGEVGGNTLGFYDCQFNEDGSMIIAHAFHGALHLWKQNTVNPREWTPEIVISGHFDGVQDLVWDPEGEFIITVGTDQTTRLFAPWKRKDQSQVTWHEIARPQIHGYDLKCLAMINRFQFVSGADEKVLRVFSAPRNFVENFCAITGQSLNHVLCNQDSDLPEGATVPALGLSNKAVFQGDIASQPSDEEELLTSTGFEYQQVAFQPSILTEPPTEDHLLQNTLWPEVQKLYGHGYEIFCVTCNSSKTLLASACKAAKKEHAAIILWNTTSWKQVQNLVFHSLTVTQMAFSPNEKFLLAVSRDRTWSLWKKQDTISPEFEPVFSLFAFTNKITSVHSRIIWSCDWSPDSKYFFTGSRDKKVVVWGECDSTDDCIEHNIGPCSSVLDVGGAVTAVSVCPVLHPSQRYVVAVGLECGKICLYTWKKTDQVPEINDWTHCVETSQSQSHTLAIRKLCWKNCSGKTEQKEAEGAEWLHFASCGEDHTVKIHRVNKCAL
notes: ELP2, human, codon-optimized open reading frame; predicted MW printed as 93 kDa; Same material as the ELP2 chain of m4; The ORF was first cloned into pFastBac1 HT A; source: SuperSf9-3 insect cells, co-expressed with ELP1 and ELP3 (pBig1a), purified as ELP123 (StrepTrap, heparin, Superose 6)
[2]
  stoichiometry N: 1

B3: tRNASerUGA (structured_RNA)
RNA: GCAGCGAUGGCCGAGUGGUUAAGGCGUUGGACUUGAAAUCCAAUGGGGUCUCCCCGCGCAGGUUCGAACCCUGCUCGCUGCGCCA
ELP1;ELP2;ELP3 wild type; long variable loop
  Kd: 138 ± 10.5 nM

B4: tRNAGln U33C34UG (structured_RNA)
RNA: GGCCCCAUGGUGUAAUGGUUAGCACUCUGGACUCUGAAUCCAGCGAUCCGAGUUCAAAUCUCGGUGGGACCUCCA
ELP1;ELP2;ELP3 wild type
  binding result: binds

B5: tRNAGln C33U34UG (structured_RNA)
RNA: GGCCCCAUGGUGUAAUGGUUAGCACUCUGGACCUUGAAUCCAGCGAUCCGAGUUCAAAUCUCGGUGGGACCUCCA
ELP1;ELP2;ELP3 wild type
  binding result: binds

B6: tRNAGln C33C34UG (structured_RNA)
RNA: GGCCCCAUGGUGUAAUGGUUAGCACUCUGGACCCUGAAUCCAGCGAUCCGAGUUCAAAUCUCGGUGGGACCUCCA
ELP1;ELP2;ELP3 wild type
  binding result: binds

B7: tRNAGlnCUG (structured_RNA)
RNA: GGUUCCAUGGUGUAAUGGUUAGCACUCUGGACUCUGAAUCCAGCGAUCCGAGUUCAAAUCUCGGUGGAACCUCCA
ELP1;ELP2;ELP3 wild type
  Kd: 118 ± 13.8 nM
